Consider one substance from article PMC8571072.

“And” between values parts separate entries of the source, which are not always exact repeats. Identical values can stand only once.

The target of the assay is intelectin-2 (Xenopus laevis (endogenous in egg extract)). As to the kind of experiment: cryo-EM structure.

One may read the stoichiometry N as the number of molecules, sites or subunits per partner or assembly.

As to intelectin-2 (natural protein), the stoichiometry N is 3 and 6.
